Measurements: IntAct's records for PubMed 15883825

B1: F-box protein MET30 (Saccharomyces cerevisiae), P39014 (parent)
chain: MRRERQRMMSFEDKDKDDLDNSNSNNSSEMTDTAMMPPLKRLLITGSSDDLAQGSSGKKKMTMATRSPSSSPDLATNDSGTRVQPLPEYNFTKFCYRHNPDIQFSPTHTACYKQDLKRTQEINANIAKLPLQEQSDIHHIISKYSNSNDKIRKLILDGILSTSCFPQLSYISSLVTHMIKIDFISILPQELSLKILSYLDCQSLCNATRVCRKWQKLADDDRVWYHMCEQHIDRKCPNCGWGLPLLHMKRARIQQNSTGSSSNADIQTQTTRPWKVIYRERFKVESNWRKGHCRIQEFKGHMDGVLTLQFNYRLLFTGSYDSTIGIWDLFTGKLIRRLSGHSDGVKTLYFDDRKLITGSLDKTIRVWNYITGECISTYRGHSDSVLSVDSYQKVIVSGSADKTVKVWHVESRTCYTLRGHTEWVNCVKLHPKSFSCFSCSDDTTIRMWDIRTNSCLKVFRGHVGQVQKIIPLTIKDVENLATDNTSDGSSPQDDPTMTDGADESDTPSNEQETVLDENIPYPTHLLSCGLDNTIKLWDVKTGKCIRTQFGHVEGVWDIAADNFRIISGSHDGSIKVWDLQSGKCMHTFNGRRLQRETQHTQTQSLGDKVAPIACVCIGDSECFSGDEFGCVKMYKFDLND
partner: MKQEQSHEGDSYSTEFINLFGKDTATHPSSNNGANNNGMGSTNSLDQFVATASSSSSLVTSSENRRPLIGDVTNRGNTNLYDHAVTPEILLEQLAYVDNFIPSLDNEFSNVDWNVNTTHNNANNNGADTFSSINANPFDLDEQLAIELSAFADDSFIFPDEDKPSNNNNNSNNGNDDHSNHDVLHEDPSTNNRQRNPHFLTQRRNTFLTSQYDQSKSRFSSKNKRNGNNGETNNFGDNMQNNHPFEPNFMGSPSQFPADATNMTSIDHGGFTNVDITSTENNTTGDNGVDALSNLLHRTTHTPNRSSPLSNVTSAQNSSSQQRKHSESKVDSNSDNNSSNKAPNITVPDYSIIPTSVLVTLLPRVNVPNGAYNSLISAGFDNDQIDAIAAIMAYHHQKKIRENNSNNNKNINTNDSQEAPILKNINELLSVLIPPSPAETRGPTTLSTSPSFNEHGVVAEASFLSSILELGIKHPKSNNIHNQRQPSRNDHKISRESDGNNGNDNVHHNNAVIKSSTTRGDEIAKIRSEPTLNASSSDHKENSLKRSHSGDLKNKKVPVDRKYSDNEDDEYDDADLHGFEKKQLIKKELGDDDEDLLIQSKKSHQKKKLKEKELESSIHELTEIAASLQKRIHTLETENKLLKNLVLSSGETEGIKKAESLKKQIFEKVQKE

Variants of: B1
Settings: with met4_yeast MET4, P32389

effect of a mutation on the interaction	Variant
decreasing interaction	L386D;N425A;Q467A;L530D
